As usually defined, the Km is the substrate concentration at which the rate is half of its maximum.

The values below come from publication PMC12959268, “Mapping the nonribosomal specificity code through promiscuity-guided A-domain engineering” (Chemical Science, 2026).

What all share (assay): MesG/hydroxylamine adenylation assay (pyrophosphate release)
Holding throughout (format): biochemical, Bacillus subtilis
Common to all, as to conditions: 5 mM ATP, 5 mM MgCl2, 150 mM hydroxylamine, pH 7.6, 30 °C

Substrate in series [1]: CC(C)C[C@H](N)C(=O)O
Substrate in series [2]: CSCC[C@H](N)C(=O)O
Substrate in series [3]: N[C@@H](Cc1ccccc1)C(=O)O

Changes are numbered by the printed parent chain. Names and notes keep the numbering of the source.

B1: SrfAC (Bacillus subtilis subsp. subtilis str. 168) (protein)
chain: MSQFSKDQVQDMYYLSPMQEGMLFHAILNPGQSFYLEQITMKVKGSLNIKCLEESMNVIMDRYDVFRTVFIHEKVKRPVQVVLKKRQFHIEEIDLTHLTGSEQTAKINEYKEQDKIRGFDLTRDIPMRAAIFKKAEESFEWVWSYHHIILDGWCFGIVVQDLFKVYNALREQKPYSLPPVKPYKDYIKWLEKQDKQASLRYWREYLEGFEGQTTFAEQRKKQKDGYEPKELLFSLSEAETKAFTELAKSQHTTLSTALQAVWSVLISRYQQSGDLAFGTVVSGRPAEIKGVEHMVGLFINVVPRRVKLSEGITFNGLLKRLQEQSLQSEPHQYVPLYDIQSQADQPKLIDHIIVFENYPLQDAKNEESSENGFDMVDVHVFEKSNYDLNLMASPGDEMLIKLAYNENVFDEAFILRLKSQLLTAIQQLIQNPDQPVSTINLVDDREREFLLTGLNPPAQAHETKPLTYWFKEAVNANPDAPALTYSGQTLSYRELDEEANRIARRLQKHGAGKGSVVALYTKRSLELVIGILGVLKAGAAYLPVDPKLPEDRISYMLADSAAACLLTHQEMKEQAAELPYTGTTLFIDDQTRFEEQASDPATAIDPNDPAYIMYTSGTTGKPKGNITTHANIQGLVKHVDYMAFSDQDTFLSVSNYAFDAFTFDFYASMLNAARLIIADEHTLLDTERLTDLILQENVNVMFATTALFNLLTDAGEDWMKGLRCILFGGERASVPHVRKALRIMGPGKLINCYGPTEGTVFATAHVVHDLPDSISSLPIGKPISNASVYILNEQSQLQPFGAVGELCISGMGVSKGYVNRADLTKEKFIENPFKPGETLYRTGDLARWLPDGTIEYAGRIDDQVKIRGHRIELEEIEKQLQEYPGVKDAVVVADRHESGDASINAYLVNRTQLSAEDVKAHLKKQLPAYMVPQTFTFLDELPLTTNGKVNKRLLPKPDQDQLAEEWIGPRNEMEETIAQIWSEVLGRKQIGIHDDFFALGGHSLKAMTAASRIKKELGIDLPVKLLFEAPTIAGISAYLKNGGSDGLQDVTIMNQDQEQIIFAFPPVLGYGLMYQNLSSRLPSYKLCAFDFIEEEDRLDRYADLIQKLQPEGPLTLFGYSAGCSLAFEAAKKLEEQGRIVQRIIMVDSYKKQGVSDLDGRTVESDVEALMNVNRDNEALNSEAVKHGLKQKTHAFYSYYVNLISTGQVKADIDLLTSGADFDMPEWLASWEEATTGVYRVKRGFGTHAEMLQGETLDRNAEILLEFLNTQTVTVS
notes: full module C-A-T-TE, C-terminal His6 tag, holo form, from pTrc99a-srfAC in E. coli HM0079
For B1, the Km in series [1] is 13 ± 1 µM.

B2: SrfAC (Bacillus subtilis subsp. subtilis str. 168; A660V/C752A/F702S) (protein)
chain: B1 chain with A660V, F702S, C752A
notes: as for B1
With B2, the Km in series [1] turned out to be 510 ± 50 µM; in series [2], 4600 ± 900 µM; in series [3], 1300 ± 100 µM.
